The source of these data is US20260109770A1 (REMD BIOTHERAPEUTICS, published 2026).

Positions count from the first letter of the chain named.

First the molecules themselves.
T1: human CCR4 (hCCR4) (human, UniProt P51679 1-360)
T1 construct: whole, on cells
T1 sequence (looked up): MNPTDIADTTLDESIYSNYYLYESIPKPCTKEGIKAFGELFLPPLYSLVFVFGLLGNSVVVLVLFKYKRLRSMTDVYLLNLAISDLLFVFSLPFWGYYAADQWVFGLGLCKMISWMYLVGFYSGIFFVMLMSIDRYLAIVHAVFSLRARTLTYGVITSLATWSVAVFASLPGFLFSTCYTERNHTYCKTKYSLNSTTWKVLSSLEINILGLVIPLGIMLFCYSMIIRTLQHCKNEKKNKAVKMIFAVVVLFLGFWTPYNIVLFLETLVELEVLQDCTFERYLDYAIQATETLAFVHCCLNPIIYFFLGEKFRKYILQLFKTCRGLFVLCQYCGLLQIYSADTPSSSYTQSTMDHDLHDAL

B1: mouse antibody 46A5C4B1 (MAb 2) (antibody, V domains shown)
VH: EVQLVESGGGLVQPKGSLKLSCAASGFSFNAYAMNWVRQAPGKGLEWVARIRSKSNNYATYYADSVKDRFIISRDDSESMLYLQMNNLKTEDTAMYFCVRGGTYGSTSYFDYWGQGTTLTVSS
VL: DIVMTQAAPSVPVTPGESVSISCRSSKSLLHSNGNTYLYWFLQRPGQSPQLLIYRMSNLASGVPDRFSGSGSGTAFTLRISRVEAEDVGVYYCMQHLEYPFTFGGGTKLEIK
notes: Mouse monoclonal antibody from a hybridoma; also called A2
B2: mouse antibody 531A6A3 (MAb 9) (antibody, V domains shown)
VH: EVQLVESGGGLVQPKGSLKLSCAASGFSFKTYAMNWVRQAPGKGLEWVARIRTKSNNYATYYADSVKDRFTISRDDSETMLYLQMNNLKTEDTAMYYCVRGGSGLNYVRYFDVWGTGTTVTVSS
VL: B1 VL with T74S, G105S
B3: mouse antibody 526G1C12 (MAb 16) (antibody, V domains shown)
VH: B2 VH with K43E, T116P
VL: B1 VL with P12L, I21F, Y54F, T74S, G105S
B4: mouse antibody 516D7D12 (MAb 10) (antibody, V domains shown)
VH: B2 VH with K30N, T79S, N106R
VL: B1 VL with A8T, D65E, T74S, I80V, G105S
B5: mouse antibody 507B6B10 (MAb 14) (antibody, V domains shown)
VH: B2 VH with K30N, T53S, T79S, L105I, N106R
VL: B1 VL with L30Q, T36I, T74S, G105S
B6: mouse antibody 504E12D8D12 (MAb 18) (antibody, V domains shown)
VH: B2 VH with K30N, D64A
VL: B1 VL with P12F, T14I, T74S, G105S
B7: mouse antibody 531A3E12H8 (MAb 17) (antibody, V domains shown)
VH: B2 VH with K30N, Y61F, D75H, T79S, L105I, N106R
VL: B1 VL with P12T, N58D, T74S, G105S
B8: mouse antibody 529D10C10 (MAb 6) (antibody, V domains shown)
VH: B2 VH with K15R, K30N, T31A, T79S, N86I, L105I, N106R, R109K
VL: B1 VL with D65E, T74S, G105S
B9: mouse antibody 525F2F3F11 (MAb 11) (antibody, V domains shown)
VH: B2 VH with K30N, T79N, N106R
VL: B1 VL with A8T, D65E, T74S, I80V, G105S
B10: mouse antibody 506G6G5 (MAb 8) (antibody, V domains shown)
VH: B2 VH with K30N, T53S, T79S, L105I, N106S
VL: B1 VL with T74S, G105S
B11: mouse antibody 508C11A12 (MAb 5) (antibody, V domains shown)
VH: B2 VH with K30N, T79N, M80I, L105I, N106K
VL: B1 VL with D65E, T74S, G105S
B12: mouse antibody 536H9D10 (MAb 7) (antibody, V domains shown)
VH: B2 VH with K15G, K30N, T31A, T79S, N86I, L105I, N106R, R109K
VL: B1 VL with D65E, T74S, G105S
B13: mouse antibody 80E4D1F11 (MAb 3) (antibody, V domains shown)
VH: B1 VH with A31T, D68A, I71T
VL: B1 VL
notes: Mouse monoclonal antibody from a hybridoma; also called A3
B14: mouse antibody 41E1C2A5 (MAb 1) (antibody, V domains shown)
VH: B1 VH with I71T, S79T, T107S
VL: B1 VL with S22P, E110Q, K112R
notes: Mouse monoclonal antibody from a hybridoma; also called A1
B15: mouse antibody 419C7B3B2 (MAb 4) (antibody, V domains shown)
VH: EVQLQQSGPELVKPGSSVKISCKASGYTFTDYNMDWVKQSHGKSLEWIGAINPNNGGTGYTQKFKGKATLTVDKSSSTAFMELRSLTSEDSAVYYCARRGVYMFAYWGQGTLVTVSA
VL: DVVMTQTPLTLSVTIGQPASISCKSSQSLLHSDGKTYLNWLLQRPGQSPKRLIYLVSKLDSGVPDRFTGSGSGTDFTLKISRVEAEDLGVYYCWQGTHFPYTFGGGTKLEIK
B16: mouse antibody 530H3G7D9 (MAb 12) (antibody, V domains shown)
VH: EVQLVESGGGLVQPKGSLKLSCAASGFSFNTYAMNWVRQAPGKGLDWVARIRSKSNNYATYYADSVKDRFTISRDDSESMLYLQMNNLKTEDTAMYFCVRQTYGSRDYAMDYWGQGTSVTVSS
VL: DVVMTQTPLSLPVSLGDQASISCRSSQSLVHSNGNTYLHWYLQKPGQSPKLLIYKVSNRFSGVPDRFSGSGSGTDFTLKISRVEAEDLGVYFCCQSTHVPPYTFGGGTKLEIK
B17: mouse antibody 531B9B1C9 (MAb 13) (antibody, V domains shown)
VH: B16 VH with T31A
VL: B16 VL
B18: mouse antibody 538H5G10 (MAb 19) (antibody, V domains shown)
VH: B16 VH with T31A, D46E, Y58F, F97Y
VL: B16 VL with Q18R, K50R, C94S, S96N
B19: mouse antibody 509H4E10B3 (MAb 15) (antibody, V domains shown)
VH: B16 VH with K15R, T31A, D46E, Y58F, F97Y
VL: B16 VL with Q18R, K50R, C94S
B20: murine-human chimeric (human IgG1) antibody 516D7D12 (antibody, V domains shown)
VH: B2 VH with K30N, T79S, N106R
VL: DIVMTQATPSVPVTPGESVSISCRSSKSLLHSNGNTYLYWFLQRPGQSPQLLIYRMSNLASGVPERFSGSGSGSAFTLRVSRVEAEDVGVYYCMQHLEYPFTFGSGTKLEIKR
notes: Chimeric antibody derived from murine antibody A10 and human IgG1
B21: murine-human chimeric (human IgG1) antibody 525F2F3F11 (antibody, V domains shown)
VH: B2 VH with K30N, T79N, N106R
VL: B20 VL
notes: Chimeric antibody derived from murine antibody A11 and human IgG1
B22: murine-human chimeric (human IgG1) antibody 504E12D8D12 (antibody, V domains shown)
VH: B2 VH with K30N, D64A
VL: B20 VL with T8A, P12F, T14I, E65D, V80I
notes: Chimeric antibody derived from murine antibody A18 and human IgG1; also called chimeric 504E12D8D12 mAb
B23: murine-human chimeric (human IgG1) antibody 41E1C2A5 (antibody, V domains shown)
VH: B1 VH with I71T, S79T, T107S
VL: B20 VL with T8A, S22P, E65D, S74T, V80I, S105G, E110Q, K112R

In one test the target is T2, human C-C chemokine receptor type 8 (hCCR8) (human, UniProt P51685 1-355). The test is described as follows: cell-based or functional assay.
T2 sequence (P51685 whole entry): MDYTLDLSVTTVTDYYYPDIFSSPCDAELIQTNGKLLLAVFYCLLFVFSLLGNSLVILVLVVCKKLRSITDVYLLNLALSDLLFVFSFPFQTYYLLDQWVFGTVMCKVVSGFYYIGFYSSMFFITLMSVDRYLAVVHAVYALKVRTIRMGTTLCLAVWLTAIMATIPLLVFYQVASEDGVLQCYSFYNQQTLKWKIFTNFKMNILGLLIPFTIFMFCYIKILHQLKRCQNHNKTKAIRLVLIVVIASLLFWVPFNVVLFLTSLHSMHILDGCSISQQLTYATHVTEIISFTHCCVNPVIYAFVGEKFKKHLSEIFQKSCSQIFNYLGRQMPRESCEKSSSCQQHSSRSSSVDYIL
For the molecule B1, the “inhibition of β-arrestin production (CCR8 CHO-K1 β-arrestin bioassay, 2 nM hCCL1, subclone supernatant)” value (“inhibition of β-arrestin production” below) is at least 50%.
With B2, the “inhibition of β-arrestin production” value was at least 50%.
Turning to B3, the “inhibition of β-arrestin production” value was at least 50%.
With B4, the “inhibition of β-arrestin production” value was at least 50%.
On the same count and under the same terms, in the case of B5 it was at least 50%.
For the molecule B6, the “inhibition of β-arrestin production” value is at least 50%.
The same measure, in the same setting: in the case of B7 it was at least 50%; in that of B8, at least 50%.
Take B9: the “inhibition of β-arrestin production” value is at least 50%.
Consider B10, for which the “inhibition of β-arrestin production” value is at least 50%.
With B11, the “inhibition of β-arrestin production” value is at least 50%.
As to B12, the “inhibition of β-arrestin production” value was at least 50%.
In the case of B13, the “inhibition of β-arrestin production” value is at least 50%.
As to B14, the “inhibition of β-arrestin production” value is at least 50%.
For the molecule B15, the “inhibition of β-arrestin production” value is at least 50%.
With B16, the “inhibition of β-arrestin production” value is at least 50%.
As to B17, the “inhibition of β-arrestin production” value was at least 50%.
Regarding B18, the “inhibition of β-arrestin production” value was at least 50%.
B19: the “inhibition of β-arrestin production” value was at least 50%.

The target in another test is T2, human C-C chemokine receptor type 8 …. Put plainly: cell-based or functional assay. This is another data set of the same source.
In the case of B1, the “IC50 (nM), antagonist activity measured by β-arrestin assay” value was 6.24 nM.
The same measure, in the same setting: the same measure for B13: 7.11 nM; for B14: 4.68 nM; for B20: 1.51 nM.
Take B21: the “IC50 (nM), antagonist activity measured by β-arrestin assay” value came to 1.52 nM.
On the same count and under the same terms, in the case of B22 it was 0.867 nM.

The target is the same in the next test. The test is described as follows: cell-based or functional assay. This is another data set of the same source.
B23: the “EC50 of ADCC activity (column head prints IC50 (nM)); ADCC/NFAT-reporter-Jurkat bioassay” value is 0.049 nM.
B22: the “EC50 of ADCC activity (column head prints IC50 (nM)); ADCC/NFAT-reporter-Jurkat bioassay” value was 0.015 nM.

A further test deals with T1, human CCR4 (hCCR4). Put plainly: flow cytometry on hCCR4-expressing CHO-K1 cells against parental CHO-K1 cells. The method, then:
The antibodies were further screened for binding to human CCR4 (hCCR4) by flow cytometry. The antibodies were incubated with CHO-K1 cells and hCCR4-expressing CHO-K1 cells for 60 minutes at 4° C. The cells were washed thoroughly with PBS buffer and were then incubated with FITC-conjugated goat anti-mouse IgG Fc antibody or anti-human IgG Fc antibody. Mean Fluorescence Intensity (MFI) of antibody binding on the cells were analyzed by flow cytometry (Table 7).
With B1, the binding result was “no binding”.
As to B13, the binding result is recorded as “no binding”.
Turning to B14, the binding result was “no binding”.
B20: the binding result was “no binding”.
On to B21, for which the binding result was “no binding”.
With B22, the binding result was “no binding”.
